The test system of this data set is Escherichia coli TOP10. Put plainly: shrunken log2 fold change of peptide-encoding DNA abundance (4.5 h post-induction vs induction); higher = less antimicrobial activity (less host growth inhibition). The following applies: time post-induction: 4.5 h; library: site-saturation at positions 5, 18, 19, 20.
Turning to RRIRDRPPRLPRPRPRPRYNPRP, the “shrunken log2 fold change” value was -0.513.

RRIRVRPPRLPRPRPRPHRIPRP: the “shrunken log2 fold change” value was -0.0697.

Take RRIRGRPPRLPRPRPRPMVFPRP: the “shrunken log2 fold change” value turned out to be 0.78.

With RRIRHRPPRLPRPRPRPAKIPRP, the “shrunken log2 fold change” value was -0.0242.

As to RRIRHRPPRLPRPRPRPPPRPRP, the “shrunken log2 fold change” value is 1.25.

Regarding RRIRSRPPRLPRPRPRPCDLPRP, the “shrunken log2 fold change” value is -0.144.

On to RRIRERPPRLPRPRPRPYMIPRP, for which the “shrunken log2 fold change” value was -0.259.

As for RRIRGRPPRLPRPRPRPIVEPRP, the “shrunken log2 fold change” value is 0.194.

Take RRIRFRPPRLPRPRPRPYYYPRP: the “shrunken log2 fold change” value was -0.392.

On to RRIRHRPPRLPRPRPRPHKRPRP, for which the “shrunken log2 fold change” value turned out to be 0.0586.

In the case of RRIRTRPPRLPRPRPRPQNDPRP, the “shrunken log2 fold change” value is -0.749.

As for RRIRSRPPRLPRPRPRPQAFPRP, the “shrunken log2 fold change” value is -0.114.

Take RRIRNRPPRLPRPRPRPNICPRP: the “shrunken log2 fold change” value is -0.0714.

Take RRIRKRPPRLPRPRPRPDQEPRP: the “shrunken log2 fold change” value turned out to be 0.0193.

As to RRIRYRPPRLPRPRPRPPMTPRP, the “shrunken log2 fold change” value was -0.456.

Regarding RRIRKRPPRLPRPRPRPLMMPRP, the “shrunken log2 fold change” value came out at 0.207.

Turning to RRIRFRPPRLPRPRPRPTSTPRP, the “shrunken log2 fold change” value was -0.0598.

For RRIRSRPPRLPRPRPRPHISPRP, the “shrunken log2 fold change” value is -0.035.

In the case of RRIRRRPPRLPRPRPRPQTDPRP, the “shrunken log2 fold change” value worked out at 0.13.

Consider RRIRTRPPRLPRPRPRPWFQPRP, for which the “shrunken log2 fold change” value was -0.195.

Take RRIRRRPPRLPRPRPRPRTDPRP: the “shrunken log2 fold change” value worked out at 0.438.

As to RRIRARPPRLPRPRPRPALRPRP, the “shrunken log2 fold change” value turned out to be 0.363.

RRIRRRPPRLPRPRPRPNLYPRP: the “shrunken log2 fold change” value is -0.0246.

On to RRIRMRPPRLPRPRPRPPGYPRP, for which the “shrunken log2 fold change” value turned out to be 0.599.

On to RRIRDRPPRLPRPRPRPMHRPRP, for which the “shrunken log2 fold change” value was -0.0439.

As for RRIRGRPPRLPRPRPRPSVQPRP, the “shrunken log2 fold change” value was -0.0165.

For RRIRLRPPRLPRPRPRPGCTPRP, the “shrunken log2 fold change” value was -0.151.

As for RRIRGRPPRLPRPRPRPAIAPRP, the “shrunken log2 fold change” value worked out at 0.91.

On to RRIRMRPPRLPRPRPRPSSHPRP, for which the “shrunken log2 fold change” value turned out to be 0.0506.

Regarding RRIRARPPRLPRPRPRPWMLPRP, the “shrunken log2 fold change” value is -0.306.

Regarding RRIRWRPPRLPRPRPRPYYCPRP, the “shrunken log2 fold change” value is -0.00583.

For the sequence RRIRPRPPRLPRPRPRPLRLPRP, the “shrunken log2 fold change” value came out at 0.2.

As to RRIRDRPPRLPRPRPRPYHPPRP, the “shrunken log2 fold change” value is -0.449.

In the case of RRIRIRPPRLPRPRPRPTQNPRP, the “shrunken log2 fold change” value was 0.19.

RRIRLRPPRLPRPRPRPWVGPRP: the “shrunken log2 fold change” value came to 0.233.

Take RRIRTRPPRLPRPRPRPAYSPRP: the “shrunken log2 fold change” value was 0.0215.

As for RRIRDRPPRLPRPRPRPHVCPRP, the “shrunken log2 fold change” value is -0.00727.

With RRIRYRPPRLPRPRPRPCIYPRP, the “shrunken log2 fold change” value was -0.207.

Consider RRIRDRPPRLPRPRPRPGCSPRP, for which the “shrunken log2 fold change” value is 0.278.

With RRIRIRPPRLPRPRPRPKMSPRP, the “shrunken log2 fold change” value is -0.327.

For the sequence RRIRGRPPRLPRPRPRPVTLPRP, the “shrunken log2 fold change” value worked out at 0.149.

As to RRIRMRPPRLPRPRPRPEDEPRP, the “shrunken log2 fold change” value is 2.06.

In the case of RRIRYRPPRLPRPRPRPNHMPRP, the “shrunken log2 fold change” value was -0.611.

Regarding RRIRQRPPRLPRPRPRPSMMPRP, the “shrunken log2 fold change” value is -0.565.

For RRIRIRPPRLPRPRPRPETSPRP, the “shrunken log2 fold change” value is -0.239.

Take RRIRDRPPRLPRPRPRPTFSPRP: the “shrunken log2 fold change” value stood at 0.743.

As to RRIRFRPPRLPRPRPRPSEMPRP, the “shrunken log2 fold change” value was -0.148.

As for RRIRQRPPRLPRPRPRPWGEPRP, the “shrunken log2 fold change” value is -0.0675.

Regarding RRIRVRPPRLPRPRPRPHWDPRP, the “shrunken log2 fold change” value is -0.473.

Regarding RRIRGRPPRLPRPRPRPPDTPRP, the “shrunken log2 fold change” value was determined as 1.

RRIRWRPPRLPRPRPRPIVGPRP: the “shrunken log2 fold change” value is -0.0113.

For RRIRARPPRLPRPRPRPWKLPRP, the “shrunken log2 fold change” value was -0.36.

As for RRIRYRPPRLPRPRPRPMLSPRP, the “shrunken log2 fold change” value came to 0.0215.

As for RRIRRRPPRLPRPRPRPLGRPRP, the “shrunken log2 fold change” value was -0.143.

Regarding RRIRPRPPRLPRPRPRPSGHPRP, the “shrunken log2 fold change” value was -0.395.

Take RRIRLRPPRLPRPRPRPNNMPRP: the “shrunken log2 fold change” value is -0.703.

Turning to RRIRRRPPRLPRPRPRPSVFPRP, the “shrunken log2 fold change” value is 0.141.

Take RRIRERPPRLPRPRPRPSMIPRP: the “shrunken log2 fold change” value is -0.171.

Turning to RRIRERPPRLPRPRPRPESIPRP, the “shrunken log2 fold change” value is 0.089.

As for RRIRHRPPRLPRPRPRPRTNPRP, the “shrunken log2 fold change” value was found to be 0.0589.

For the sequence RRIRIRPPRLPRPRPRPDLVPRP, the “shrunken log2 fold change” value was -0.201.

As for RRIRHRPPRLPRPRPRPYFLPRP, the “shrunken log2 fold change” value is -0.996.

For RRIRYRPPRLPRPRPRPKHQPRP, the “shrunken log2 fold change” value was -0.441.

RRIRARPPRLPRPRPRPHNKPRP: the “shrunken log2 fold change” value was -0.398.

In the case of RRIRFRPPRLPRPRPRPEMNPRP, the “shrunken log2 fold change” value is -0.253.

RRIRKRPPRLPRPRPRPDNTPRP: the “shrunken log2 fold change” value was -0.0368.

Take RRIRTRPPRLPRPRPRPGMNPRP: the “shrunken log2 fold change” value is -0.15.

For the sequence RRIRDRPPRLPRPRPRPPCMPRP, the “shrunken log2 fold change” value is -0.317.

Consider RRIRTRPPRLPRPRPRPQGCPRP, for which the “shrunken log2 fold change” value worked out at 0.0515.

With RRIRVRPPRLPRPRPRPTHFPRP, the “shrunken log2 fold change” value was -0.266.

For RRIRPRPPRLPRPRPRPNSFPRP, the “shrunken log2 fold change” value was -0.251.

Turning to RRIRWRPPRLPRPRPRPKFGPRP, the “shrunken log2 fold change” value stood at 0.206.

Consider RRIRQRPPRLPRPRPRPSLCPRP, for which the “shrunken log2 fold change” value is -0.0894.

Regarding RRIRIRPPRLPRPRPRPFVFPRP, the “shrunken log2 fold change” value was -0.356.

Regarding RRIRPRPPRLPRPRPRPQMEPRP, the “shrunken log2 fold change” value was determined as 0.0168.

For the sequence RRIRTRPPRLPRPRPRPVFEPRP, the “shrunken log2 fold change” value was -0.289.

For RRIRDRPPRLPRPRPRPQGEPRP, the “shrunken log2 fold change” value is -0.0304.

In the case of RRIRRRPPRLPRPRPRPNVHPRP, the “shrunken log2 fold change” value is -0.203.

Take RRIRARPPRLPRPRPRPMYCPRP: the “shrunken log2 fold change” value was found to be 0.0455.

RRIRTRPPRLPRPRPRPAWVPRP: the “shrunken log2 fold change” value turned out to be 0.285.

Take RRIRSRPPRLPRPRPRPHVTPRP: the “shrunken log2 fold change” value is -0.232.

For RRIRDRPPRLPRPRPRPSPWPRP, the “shrunken log2 fold change” value came to 0.188.

RRIRNRPPRLPRPRPRPTIWPRP: the “shrunken log2 fold change” value was -0.23.

As for RRIRCRPPRLPRPRPRPQIYPRP, the “shrunken log2 fold change” value is -0.579.

Turning to RRIRGRPPRLPRPRPRPRQAPRP, the “shrunken log2 fold change” value was found to be 0.93.

Consider RRIRARPPRLPRPRPRPQPVPRP, for which the “shrunken log2 fold change” value was 0.292.

RRIRARPPRLPRPRPRPDYCPRP: the “shrunken log2 fold change” value is -0.17.

Turning to RRIRGRPPRLPRPRPRPWRAPRP, the “shrunken log2 fold change” value turned out to be 0.311.

In the case of RRIRRRPPRLPRPRPRPMTMPRP, the “shrunken log2 fold change” value came to 0.0735.

Turning to RRIRGRPPRLPRPRPRPNHNPRP, the “shrunken log2 fold change” value was -0.409.

Take RRIRRRPPRLPRPRPRPCSGPRP: the “shrunken log2 fold change” value was -0.0988.

In the case of RRIRSRPPRLPRPRPRPPSWPRP, the “shrunken log2 fold change” value was 0.482.

In the case of RRIRRRPPRLPRPRPRPEWSPRP, the “shrunken log2 fold change” value was 0.274.

With RRIRTRPPRLPRPRPRPTLEPRP, the “shrunken log2 fold change” value worked out at 0.0319.

For RRIRPRPPRLPRPRPRPFWTPRP, the “shrunken log2 fold change” value is -0.0762.

For RRIRPRPPRLPRPRPRPIMNPRP, the “shrunken log2 fold change” value is -0.799.

As for RRIRPRPPRLPRPRPRPDILPRP, the “shrunken log2 fold change” value was -0.51.

In the case of RRIRCRPPRLPRPRPRPWGVPRP, the “shrunken log2 fold change” value worked out at 0.122.

On to RRIRMRPPRLPRPRPRPPRCPRP, for which the “shrunken log2 fold change” value was 1.38.

For RRIRRRPPRLPRPRPRPGHWPRP, the “shrunken log2 fold change” value amounted to 0.0797.

On to RRIRNRPPRLPRPRPRPKFFPRP, for which the “shrunken log2 fold change” value was -0.298.

Turning to RRIRLRPPRLPRPRPRPRGYPRP, the “shrunken log2 fold change” value was found to be 0.262.

Consider RRIRERPPRLPRPRPRPPKFPRP, for which the “shrunken log2 fold change” value is -0.0978.

Consider RRIRARPPRLPRPRPRPLIQPRP, for which the “shrunken log2 fold change” value was 0.0545.

For the sequence RRIRPRPPRLPRPRPRPRSTPRP, the “shrunken log2 fold change” value was determined as 0.347.

For RRIRSRPPRLPRPRPRPDMIPRP, the “shrunken log2 fold change” value was -0.00286.

As for RRIRYRPPRLPRPRPRPTVCPRP, the “shrunken log2 fold change” value is -0.0618.

For the sequence RRIRQRPPRLPRPRPRPIWNPRP, the “shrunken log2 fold change” value was -0.183.

Take RRIRLRPPRLPRPRPRPPLKPRP: the “shrunken log2 fold change” value was 0.253.

Take RRIRGRPPRLPRPRPRPWSEPRP: the “shrunken log2 fold change” value came out at 0.127.

For RRIRERPPRLPRPRPRPIYWPRP, the “shrunken log2 fold change” value is -0.0719.

RRIRSRPPRLPRPRPRPKDWPRP: the “shrunken log2 fold change” value came out at 0.21.

Regarding RRIRVRPPRLPRPRPRPDYKPRP, the “shrunken log2 fold change” value turned out to be 0.105.

Regarding RRIRFRPPRLPRPRPRPVCMPRP, the “shrunken log2 fold change” value was -0.498.

Consider RRIRPRPPRLPRPRPRPNQRPRP, for which the “shrunken log2 fold change” value is 0.0736.

Take RRIRFRPPRLPRPRPRPMKLPRP: the “shrunken log2 fold change” value was -0.0666.

RRIRMRPPRLPRPRPRPEVMPRP: the “shrunken log2 fold change” value was determined as 2.84.

With RRIRCRPPRLPRPRPRPILKPRP, the “shrunken log2 fold change” value is -0.263.

For RRIRERPPRLPRPRPRPYWYPRP, the “shrunken log2 fold change” value was -1.83.

Turning to RRIRFRPPRLPRPRPRPKQYPRP, the “shrunken log2 fold change” value is -0.43.

On to RRIRCRPPRLPRPRPRPTEKPRP, for which the “shrunken log2 fold change” value is -0.293.

For RRIRERPPRLPRPRPRPHWVPRP, the “shrunken log2 fold change” value was 0.172.

Turning to RRIRTRPPRLPRPRPRPDMCPRP, the “shrunken log2 fold change” value is -0.0287.

Turning to RRIRERPPRLPRPRPRPEPLPRP, the “shrunken log2 fold change” value is -0.091.

For the sequence RRIRHRPPRLPRPRPRPSCWPRP, the “shrunken log2 fold change” value is -0.0721.

(Values after the supplement of paper PMC9112550, “Optimization of the antimicrobial peptide Bac7 by deep mutational scanning” (BMC Biology, 2022).)
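Note: peptides expressed intracellularly from a pBAD plasmid library in pooled LB shake-flask culture, induced with 0.3% L-arabinose, DNA abundance read by NGS, three biological replicates, DESeq2 with apeglm shrinkage.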
